From patent US4774321A, “DP100 EGF and insulin-binding protein from Drosophila cells” (Massachusetts Institute of Technology, priority 1986, dated 1988)
Like-named read-outs stand apart in the source and are kept apart here.

Key:
dp100 [1] = target: T1, dp100 (Drosophila melanogaster, UniProt P22817); assay: Competitive affinity labelling of immunoprecipitated dp100 with 125I-insulin as label; type: binding; settings: for Kd: competition with 125I-insulin
T1 construct: detergent-solubilized membranes from Drosophila-cultured cell lines are immunoprecipitated with anti-EGF receptor antiserum; endogenous in cells; host or cells: Drosophila Schneider L2 and Kc cells (solubilized membrane or cytoplasmic protein, immunoprecipitated)
T1 sequence (P22817 1-990): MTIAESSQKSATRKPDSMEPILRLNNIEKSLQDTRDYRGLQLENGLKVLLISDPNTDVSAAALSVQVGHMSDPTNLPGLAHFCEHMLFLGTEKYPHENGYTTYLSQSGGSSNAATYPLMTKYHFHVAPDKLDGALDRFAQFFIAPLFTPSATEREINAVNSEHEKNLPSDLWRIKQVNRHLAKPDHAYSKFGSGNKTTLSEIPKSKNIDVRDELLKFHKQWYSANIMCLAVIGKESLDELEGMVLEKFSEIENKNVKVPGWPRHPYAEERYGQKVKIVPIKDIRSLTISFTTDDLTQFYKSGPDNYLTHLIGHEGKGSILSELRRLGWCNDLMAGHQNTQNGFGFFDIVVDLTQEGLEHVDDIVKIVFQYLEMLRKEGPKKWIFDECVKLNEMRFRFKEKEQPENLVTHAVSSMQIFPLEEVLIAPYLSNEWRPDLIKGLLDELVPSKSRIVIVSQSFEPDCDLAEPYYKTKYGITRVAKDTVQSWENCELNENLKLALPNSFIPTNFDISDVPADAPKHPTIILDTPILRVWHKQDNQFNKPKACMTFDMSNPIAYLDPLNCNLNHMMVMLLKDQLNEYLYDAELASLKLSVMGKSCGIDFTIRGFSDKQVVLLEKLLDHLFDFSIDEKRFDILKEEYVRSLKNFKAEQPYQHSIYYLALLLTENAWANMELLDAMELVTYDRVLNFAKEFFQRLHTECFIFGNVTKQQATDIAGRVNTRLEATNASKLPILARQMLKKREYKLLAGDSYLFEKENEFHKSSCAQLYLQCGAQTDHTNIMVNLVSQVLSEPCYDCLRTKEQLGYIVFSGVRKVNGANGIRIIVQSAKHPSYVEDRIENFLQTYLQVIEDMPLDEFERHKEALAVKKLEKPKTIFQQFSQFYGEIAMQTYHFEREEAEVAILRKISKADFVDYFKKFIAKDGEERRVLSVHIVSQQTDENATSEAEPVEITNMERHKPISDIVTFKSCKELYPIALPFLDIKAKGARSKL
Procedure: Affinity Labeling of Immunoprecipitates: The dp100 protein is found in the membranes and cytoplasm of the Drosophila cells. Membrane protein is solubilized in 1 to 2% Triton X-100, 10% glycerol, 50 mM Hepes, pH 7.0, for 60 min at 4° C. Typically, 500 microgram of Drosophila membrane protein or 100 microgram of Swiss 3T3 membrane protein are used per sample. Unsolubilized material is removed by centrifugation at 12,000 x g for 10 min. The solublized membrane protein or cytoplasmic protein is diluted 1:2 and precleared by incubation with protein A-Sepharose beads (Pharmacia Fine Chemical Co., Piscataway, NJ). […] The immunopellets are washed three times with 50 mM Hepes, pH 7.0, 50 mM NaCl, 10% glycerol, 0.1% Triton X-100 and resuspended in 25 mM Hepes, 50 mM NaCl, 0.1% Triton X-100, 1 mg of bovine serum albumin per ml. […] Binding specificity is tested by the simultaneous addition of a 1000-fold excess of unlabeled ligand (30 microM) and labeled ligand. Bound growth factor is crosslinked to the immunoprecipitates by addition of disuccinimidyl suberate to 0.4 mM and incubation for 15 min at 0° C. The samples are then centrifuged and the supernatant removed. The pellets are resuspended in sample buffer (33 mM Tris.HCl, pH 6.5, 2% NaDodS04, 10% glycerol, 0.1% bromophenol blue, 2% 2-mercaptoethanol) and boiled. The protein A-Sepharose beads are removed by centrifugation, and the supernatants run on 6.5% polyacrylamide/NaDodS04 gels.
To ensure linearity, several exposures are taken. Dissociation constants are determined by statistical analysis.
The dissociation constants ranged from 10^-6 M to 10^-9 M.

dp100 [2] = target: T1, dp100; assay: Affinity labelling of anti-EGF receptor immunoprecipitates (dp100) with 125I-labelled growth factors; type: binding; settings: for affinity labelling (crosslinking) of dp100 by 125I-labelled ligand: disuccinimidyl suberate crosslinking, immunoprecipitates
Procedure: (§1) Affinity Labeling of Immunoprecipitates: The dp100 protein is found in the membranes and cytoplasm of the Drosophila cells. Membrane protein is solubilized in 1 to 2% Triton X-100, 10% glycerol, 50 mM Hepes, pH 7.0, for 60 min at 4° C. Typically, 500 microgram of Drosophila membrane protein or 100 microgram of Swiss 3T3 membrane protein are used per sample. Unsolubilized material is removed by centrifugation at 12,000 x g for 10 min. The solublized membrane protein or cytoplasmic protein is diluted 1:2 and precleared by incubation with protein A-Sepharose beads (Pharmacia Fine Chemical Co., Piscataway, NJ). The cleared supernatants are treated overnight with anti-EGF receptor antiserum (1:10 dilution), anti-insulin receptor antiserum (1:50), or rabbit preimmune serum (1:10), and the product precipitated with protein A-Sepharose beads. The immunopellets are washed three times with 50 mM Hepes, pH 7.0, 50 mM NaCl, 10% glycerol, 0.1% Triton X-100 and resuspended in 25 mM Hepes, 50 mM NaCl, 0.1% Triton X-100, 1 mg of bovine serum albumin per ml. 125I-EGF (35 nM) or 125I-insulin (20 nM) is added, and the samples incubated 60 min at 15° C. Binding specificity is tested by the simultaneous addition of a 1000-fold excess of unlabeled ligand (30 microM) and labeled ligand. Bound growth factor is crosslinked to the immunoprecipitates by addition of disuccinimidyl suberate to 0.4 mM and incubation for 15 min at 0° C. The samples are then centrifuged and the supernatant removed. The pellets are resuspended in sample buffer (33 mM Tris.HCl, pH 6.5, 2% NaDodS04, 10% glycerol, 0.1% bromophenol blue, 2% 2-mercaptoethanol) and boiled. The protein A-Sepharose beads are removed by centrifugation, and the supernatants run on 6.5% polyacrylamide/NaDodS04 gels.
To increase sensitivity of detection, detergent-solubilized membranes from Drosophila-cultured cell lines are immunoprecipitated with anti-EGF receptor antiserum, anti-insulin receptor antiserum, or rabbit preimmune serum prior to affinity labeling. Radiolabeled growth factors are added to the immune precipitates in the presence or absence of excess growth factor, allowed to bind at 15° C., and then crosslinked with disuccinimidyl suberate. Samples are analyzed by separation on NaDodSO4 /PAGE and subsequent autoradiography. […] However, the anti-EGF receptor antiserum does specifically immunoprecipitate dp100. Similar results are observed when membrane proteins from two different Drosophila cell lines, Schneider L2 and Kc, are analyzed.
Controls with preimmune serum fail to immunoprecipitate dp100 or any other growth factor binding protein.

[3] = target: T2, EGF receptor in human epithelial carcinoma A431 cells (Homo sapiens, UniProt P00533); assay: Competition with 125I-EGF for binding to the EGF receptor in A431 cells; settings: 4° C., 3 hr, FIG. 2
T2 construct: endogenous in cells; host or cells: A431 cells (American Type Culture Collection)
Procedure: FIG. 2 is a graph of the competitive binding of murine EGF and synthetic human TGF-alpha to the EGF receptor in A431 cells. ^125 I-EGF (10^5 cpm) was incubated with A431 cells (2×10^4 cells/well) at 4° C. for 3 hr in the presence of different M concentrations of unlabelled EGF ( ) or TGF-alpha ( ). The percent of binding as compared to the control is the mean of duplicate determinations with the error less than 10%.
Growth factor binding to A431 cells: A431 cells are grown in monolayer and ^125 I-labelled EGF bound to the cells as described by B. Friedman et al in Proc. Natl. Acad. Sci. U.S.A. 81, 3034-3039 (1984).
To ensure that the difference in the binding affinities of EGF and TGF-alpha for dp100 reflects a property of the protein rather than the particular growth factor preparations, the ability of unlabelled EGF and TGF-alpha to compete with ^125 I-labelled EGF for binding to the EGF receptor in human epithelial carcinoma A431 cells was determined.

dp100 [4] = target: T1, dp100; assay: Affinity labelling of intact Drosophila membranes; type: binding
170 kDa EGF receptor = target: T3, 170 kDa EGF receptor (Mus musculus, UniProt Q01279); assay: Affinity labelling of EGF receptor immunoprecipitated from murine 3T3 fibroblast membranes; type: binding
T3 construct: 170 kDa EGF receptor immunoprecipitated from murine 3T3 fibroblast membranes; endogenous in cells; host or cells: Swiss 3T3 mouse fibroblasts (solubilized membranes, immunoprecipitated)
Procedure: as §1, with “Binding specificity is tested by the simultaneous addition of a 1000-fold excess of unlabeled ligand (30 microM) and labeled ligand. Bound growth factor is crosslinked to the immunoprecipitates by addition of disuccinimidyl suberate to 0.4 mM and incubation for 15 min at 0° C. The samples are then centrifuged and the supernatant removed. The pellets are resuspended in sample buffer (33 mM Tris.HCl, pH 6.5, 2% NaDodS04, 10% glycerol, 0.1% bromophenol blue, 2% 2-mercaptoethanol) and boiled. The protein A-Sepharose beads are removed by centrifugation, and the supernatants run on 6.5% polyacrylamide/NaDodS04 gels.” left out
The dp100 has a higher affinity for insulln than EGF. First, in crosslinking experiments with membranes, binding of ^125 I-insulin but not ^125 I-EGF is detected.

[5] = read-out: dissociation constant (Kd) for binding to dp100
[6] = densitometric scanning of autoradiograms, read-out: Dissociation constants for ligand binding to dp100, KD

NGF: Nerve growth factor
Kd (dp100 [1]; [5]): > 1000 nM

native TGF-alpha: native transforming growth factor-alpha
affinity for dp100 compared with recombinant TGF-alpha (dp100 [1]; FIG. 3): within the same order of magnitude as the recombinant form

TGF-beta: 125I-TGF-beta, structurally unrelated growth factor
affinity labelling (crosslinking) of dp100 by 125I-labelled ligand (dp100 [2]): neither ^125 I-TGF-beta nor ^125 I-PDGF, two structurally unrelated growth factors, can be crosslinked

IGF-I: insulin-like growth factor-I (Amgen)
affinity labelling (crosslinking) of dp100 by 125I-labelled ligand (dp100 [2]): can be affinity labelled | Kd (dp100 [1]; [6]): 500 nM

glucagon: glucagon (Sigma Chemical Co.)
Kd (dp100 [1]; [5]): > 1000 nM

TGF-alpha: Synthetic human transforming growth factor-alpha, synthesized chemically (J. Tam, Rockefeller University)
affinity labelling (crosslinking) of dp100 by 125I-labelled ligand (dp100 [2]): can be affinity labelled | affinity for dp100 relative to that for EGF (dp100 [1]): three orders of magnitude higher | affinity for dp100 relative to human recombinant TGF-alpha (dp100 [1]; FIG. 3): 100-1000 times | Kd (dp100 [1]; [6]): 5 nM | Kd (dp100 [1]; [5]): 5 nM | affinity for the mammalian EGF receptor, EGF versus TGF-alpha preparations [3]: no significant difference

EGF: murine epidermal growth factor, receptor grade and HPLC purified
affinity labelling (crosslinking) of dp100 by 125I-labelled ligand (dp100 [2]): can be affinity labelled | blocking of 125I-insulin and 125I-EGF binding to dp100 by excess unlabeled ligand (dp100 [2]): can block binding | affinity labelling by 125I-ligand after incubation with intact Drosophila membranes (dp100 [4]): is not detected | blocking of 125I-EGF affinity labeling of the murine EGF receptor by excess ligand (170 kDa EGF receptor; excess unlabeled ligand): can be blocked by excess EGF | crosslinking of 125I-ligand to the 170 kDa EGF receptor (170 kDa EGF receptor; immunoprecipitated by anti-EGF receptor antiserum): can be crosslinked | affinity for dp100 compared with recombinant TGF-alpha (dp100 [1]; FIG. 3): within the same order of magnitude as the recombinant form | Kd (dp100 [1]; [6]): 1300 nM | affinity for the mammalian EGF receptor, EGF versus TGF-alpha preparations [3]: no significant difference

INSULIN: porcine insulin from Biomedical Technologies Inc.
inhibition of 125I-insulin and 125I-EGF binding to dp100, comparison of unlabeled ligands (dp100 [2]; competition with unlabeled ligand): more effective than EGF | affinity labelling (crosslinking) of dp100 by 125I-labelled ligand (dp100 [2]): can be affinity labelled | blocking of 125I-insulin and 125I-EGF binding to dp100 by excess unlabeled ligand (dp100 [2]): can block binding | affinity labelling by 125I-ligand after incubation with intact Drosophila membranes (dp100 [4]): can be detected

PDGF
affinity labelling (crosslinking) of dp100 by 125I-labelled ligand (dp100 [2]): neither ^125 I-TGF-beta nor ^125 I-PDGF, two structurally unrelated growth factors, can be crosslinked
